Test results reported in US10918697B2, “Co-activation of mTOR and STAT3 pathways to promote neuronal survival and regeneration” (Children's Medical Center Corporation, priority 2011, dated 2021).
“Also recorded” adds a separate entry of the source.

Tests used:
[1] = tested on: corticospinal tract (CST) axons; assay: CST sprouting after intraspinal CNTF injection without pyramidotomy, BDA tracing; type: in vivo, mice
Experimental: For pyramidotomy, mice were anesthetized with ketamine/xylazine. The procedure is similar to that described previously […]. Briefly, an incision was made at the left side of the trachea. Blunt dissection was performed to expose the skull base and a craniotomy in the occipital bone allowed for access to the medullary pyramids. The left pyramid was cut with a fine scalpel medially up to the basilar artery. The wound was dosed in layers with 6.0 sutures. The mice were placed on soft bedding on a warming blanket held at 37° C. until fully awake. We traced the intact CST 4 weeks later with BDA (see below). For CNTF injection into adult SOCS3 f/f mice with neonatal AAV-Cre cortical injection, a laminectomy was performed at C1 and 1 ul of CNTF (10 ug/ml, PeproTech, 450-13) was injected with a nanoliter injector into the ventral side of the dorsal column (0.5 mm deep). BDA tracing was performed 6 weeks later.
To label CST axons by anterograde tracing, a total of 2.0 μl of BDA (10%, Invitrogen, D-1956) was injected into the right sensorimotor cortex at five sites (anterior-posterior coordinates from bregma in mm; 1.0, 0.5, 0, −0.5, −1.0, all at 1.0 mm lateral and at a depth of 0.5 mm). Mice were kept for an additional 2 weeks before being sacrificed.
Mice were given a lethal dose of anesthesia and transcardially perfused with 4% paraformaldehyde. Brains and spinal cords were isolated and post-fixed in the same fixative overnight at 4° C. Tissues were cryoprotected via increasing concentrations of sucrose. After embedding into OCT compound, the samples were snap frozen in dry ice. […]
For the groups of pyramidotomy, digital images of C7 or other levels of the spinal cord transverse sections were collected using a Nikon fluorescence microscope. […]
To quantify the number of sprouting axons, the methods used in previous studies (Liu et al., 2010) were followed. […] Only fibers crossing the three lines were counted in each section. The results were presented after normalization with the number of counted CST fibers at the medulla level. At least three sections were counted for each mouse.

[2] = tested on: retinal ganglion cells (RGCs) / optic nerve axons; conditions: SOCS3f/f mice, CNTF applied intravitreously; cited from earlier work

B1: ciliary neurotrophic factor (protein, UniProt P26441 1-200, looked up)
Ciliary neurotrophic factor: MAFTEHSPLTPHRRDLCSRSIWLARKIRSDLTALTESYVKHQGLNKNINLDSADGMPVASTDQWSELTEAERLQENLQAYRTFHVLLARLLEDQQVHFTPTEGDFHQAIHTLLLQVAAFAYQIEELMILLEYKIPRNEADGMPINVGDGGLFEKKLWGLKVLQELSQWTVRSIHDLRFISSHQTGIPARGSHYIANNKKM
CST sprouting at C7 spinal cord level ([1]; SOCS3f/f mice, cortical AAV-Cre at P1, CNTF injected at C1, no injury): but not C7; also recorded: No CST sprouts seen
CST sprouting at C1 spinal cord level ([1]; SOCS3f/f mice, cortical AAV-Cre at P1, CNTF injected into dorsal spinal cord at C1 in adulthood, no injury, vs saline): triggered a significant CST sprouting response; also recorded: promotes sprouting in SOCS3-deleted neurons in the absence of an injury; also recorded: numerous crossing CST axons
extent of CST sprouting compared with left pyramidotomy ([1]; single CNTF injection at C1, SOCS3-deleted mice): less than after left pyramidotomy; also recorded: less pronounced than what is seen after injury
effect of intravitreal CNTF on axon regeneration induced by SOCS3 deletion [2]: enhances axon regeneration induced by SOCS3 deletion
